Test results as given in the nanobody polyreactivity screen of Harvey et al. (2022).

Test: yeast display, Sf9 membrane polyspecificity reagent, FACS + sequencing; frameworks hold sequencing errors
Summary of the method: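 Galactose-induced (36–48 hours) yeast carrying a synthetic nanobody display library were exposed to 10% biotinylated, detergent-solubilized Sf9 membrane reagent at 4 °C for 1 hour. FACS followed streptavidin microbead enrichment, using low and high (top ~1%) gates for expression (anti-HA) and reagent binding (streptavidin). Colony PCR, MiSeq 2 × 250 sequencing and CDR-length filtering followed. Labels for polyreactivity reflect the gate of origin.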

Sequence	polyreactivity (PSR sort gate)
QDQLVESGGGLLQAGGILRLRCAASGSILNYYAMGWYIQAPGKERELVAAISSSDGRTYYAYSEKGRFTISRDNAKNTVYLQMNSLKPEDSAVYYCAAEGTYSYSSWYEYWGQGTQVTLSS	high polyreactivity
QDQLVESGGGLLQAGGTLRLSCAASGPTFRAKAMGWNRQSPGKERELVAAITWDGGSRYYADSVKGRFTISRDYAKNTVYLQMNSLKPEYTAVYYCNTYPYLWGQGTLVTVSS	low polyreactivity
QDQLVESGGGLVHAGGSLRLSCAASGSTFDRYALGWYRQAPVKERELVATITRSGSTNYADSVKGRFTISRDNAKNTVYLQMNSLKTEDTAVYYCAAYDRITRYDYWGQGTQVTVSS	high polyreactivity
QDQLVESGGGLVQAGASLRLSCPASGFLFESNAMGWYRQAPGKERELVAAITKRGGSTYYADSVKGRFTISRDNAKNTVYLQMKSLKPEDTAVYYCARYSSRYSSGYDYWGQGTQVTVSS	high polyreactivity
QDQLVESGGGLVQAGCSLRLSCAASGRTFKDYAMGWYRQAPGKERELVAAITYRDRTYYADSVKGRFTISRDNAKNTVYLQMNSLNTEDTAVYYCNAEGFSGMDYWGKGTQVTVSS	low polyreactivity
QDQLVESGGGLVQAGGNLRLSCAASGRIYRYYAMGWYRQAPGKERELVATITLNTVSTYYADSVKGRFTISRDNAKNTVYVQKNSRTPEDTAVYYCAAGAVRFGAGYSRYWEDDYWGQGTQVTVSS	high polyreactivity
QDQLVESGGGLVQAGGRLRLSCAASGSTFLRYAMGWYRQAPGKERELVAAINLSGDRTYYADSVKGRFTISRDKAKNTFYLQMHSLKPEDTAVYYCAARWWGPSYDAYDYWGQGTQVTVSS	low polyreactivity
QDQLVESGGGLVQAGGRLRLSCAASGSTVGVYAMGWYRQAPGKERELVAAISYTGGSSYYADSVKGRFTISRDNAKNTVYLQMNSLKPEDTAVYYCAVEVGYTDSPYSYDYWGQGTQVTVSS	low polyreactivity
QDQLVESGGGLVQAGGRLRLTCAASGNTFSGNAMGWYRQAPGKERELVAAISGSGASTYYADSVKGRFTISRDNAKNTVYLQMNSLKPEDTAVYYCDADKPGIFSRFDYWGQGTQVTVSS	low polyreactivity
QDQLVESGGGLVQAGGRRRLSCAASGSIFGGYSMGWYRQAPGKERELVAAISRRGGNTYYADSVKGRFTISGDNAKNTVYLQMNSLKPDDTAVYYCAVRWPSARIPVKLDYWVQGTQVTVSS	high polyreactivity
QDQLVESGGGLVQAGGSLLLSCAASGLTVGRYAMGWYRQAPGKERELVAVINGSGGNTYYADSVKGRFTISRDHATNTVYLQMHSLKPEDTAVYYCNVDDWGQGTQVTVSS	low polyreactivity
QDQLVESGGGLVQAGGSLRISCAASGSTFFGYAMGWYRQAPGKERELVATISSGDSTNYADSVKGRFTFSRDNAKNTVYLQMNSLKPEDTAVFYCAAQGGDGVLALYYYWGQGTQVTVSS	low polyreactivity
QDQLVESGGGLVQAGGSLRLICAASGLTFKVYAMGWYRQAPGKERELVAAISWSGGSTYYADSVKGRFTISRDNAKNTVYLQMNSLKPEDTAVYYCAVEASYYVVFFPYEYWGQGTQVTVSS	low polyreactivity
QDQLVESGGGLVQAGGSLRLICAASGRIFNVYAMGWYRQAPGKERELVAAISWRGGNTYYADSVKGRFTISRDNAKNTVYLQMNSLKPEDTAVYYCAAVYRGYDYWGQGTQVTVSS	high polyreactivity
QDQLVESGGGLVQAGGSLRLICAASGSTFVQYVMGWYRPAPGKERELVAAITRSCGSTYYADSVKGRFTISRDNAKNTVYLQMNSMKPEDSAVYYCAAYALRIQYDYWGQGTQVTVSS	high polyreactivity
QDQLVESGGGLVQAGGSLRLRCAASGRTFYMYAMGWYRQAPGKERELDAVISPSGGPTYYADSVKGRFTISRDNAKNPGSLQMNSMKPEDTAVFYCATDYAYSPYRYWTRYDYWGLGTQVTVSS	high polyreactivity
QDQLVESGGGLVQAGGSLRLRCAASRFYTMGWYRQAPGKERELVAAISWSGGDTYYADSVKGRFTISRDNAKNTVYLQMNSLKPEDTAVYYCAKKTIGSYVHEPYYYWGQGTQVTVSS	low polyreactivity
QDQLVESGGGLVQAGGSLRLSCAASGFIFGLYAMGWYRQAPGKERELVAAISSGGSTYYADSVKGRFTISRDNAKNTVYLQMNSLKPEDTAVYYCAAYYVYSEYDYWGQGTQVTVSS	high polyreactivity
QDQLVESGGGLVQAGGSLRLSCAASGFIFKYYAMGWYRQAPGKVRELVAVISISGGSTYYADSVKGRLTISRDNAKNTVYLQMNSLKPEDTAVYYCNVYWRRTSTLAFDYCGQGTQVTVSS	high polyreactivity
QDQLVESGGGLVQAGGSLRLSCAASGFIFRWYAMGWYRQAPGKERELVAAISRSGDSTYYADSVKGRFTISRDNAKNTVYLQMNSLIPEDTAVYYCAADDRYYTYGYDYWGQGTQVTVSS	low polyreactivity
QDQLVESGGGLVQAGGSLRLSCAASGFIFYYNAMAWYRHAPGKERELVAAISYVGGSTYYADSVKGRFTISRDNAKNTVYLQLNSLKPEDTAFYYCAARVYWWIASLAGNYWGQGTQVSVSS	low polyreactivity
QDQLVESGGGLVQAGGSLRLSCAASGFIIIGNAMGWYRQAPGKERELVAAISRRGGSTYYADSVKGRFTISRDHAKNTVYLQMNSLKPEDTALYYCNALTRRQKGGEGGGYWGQGTQVTVSS	high polyreactivity

Sequence	polyreactivity (PSR sort gate)
QDQLVESGGGLVQAGGSLRLSCAASGFIIQCNAMGWYRQAPGKERELVAAISSSVSTYYADSVKGRFTISRDNAKNTVYLQMNSLKPEDTAVYYCNAGFPLSLWLGDYWGQGTQVTVSS	low polyreactivity
QDQLVESGGGLVQAGGSLRLSCAASGFISRKNAMGWSRQAPGKERELVATITKSGDTTYYADSVKGRFTISRDNAKNTVYLQMNSLKPEDTAVYYCAAPLYYIGSWDYYVRYIYDYWGQGTQVTVSS	low polyreactivity
QDQLVESGGGLVQAGGSLRLSCAASGFNFDRYAMGWYRQAPGKERELVAAISRRGGSTYYADSVKGRFTISRDNAKNTVYLQMNSQKPEDTAVYYCAASRPSPRPRYGYWGQGTQVTVSS	high polyreactivity
QDQLVESGGGLVQAGGSLRLSCAASGFNFDSYAMRWYIQAPGKERELVAAMSWSGSSTYSADSVKGRFTISRDNAKNTGYLQMNSLKPEDTAVYYCAALVYPYWGGSMYYWGQGTQVTVSS	high polyreactivity
QDQLVESGGGLVQAGGSLRLSCAASGFNFSPNAMGWYRQAPGKERELVAAIDWSGDRTYYADSVKGRFTISRDNAKNTVYLEMNSLKPEDTSVYYCNVVRRSTGEYSFYYWGQGTQVTVSS	low polyreactivity
QDQLVESGGGLVQAGGSLRLSCAASGFTFAANAMGWSRQAPGKERELVAAISSDSTYADSVKGRFTISRDNAKNTVYLQLNSLKPEDTAVYYCAKDRYIVNSPGLDYWGQGTQVTVSS	low polyreactivity
QDQLVESGGGLVQAGGSLRLSCAASGFTFGRYAMGWYRQAPGKERELVATITRTGSTNYADSVKGRFTISRDNAKNTVDLQMHSLKPEDTAVYYCNAVYSGWRYVKYDYWGPGTQVTVSS	low polyreactivity
QDQLVESGGGLVQAGGSLRLSCAASGFTFGYYAMGWYRQAPGKERELVAAISTRGTSTYYADSVKGRFTISRDNAKNTVYLQMNSLKPEDTAVYYCARDKATDHGYNEFDYWGQGTQVTVSS	low polyreactivity
QDQLVESGGGLVQAGGSLRLSCAASGFTFGYYPMGWSRQAPGKERELVAAITSSGGRTYYADSVKGRFTISRDYGKNTVYLQMNSLKPEDTAVYYCATAYRPDYGYWGQGTQVTRSS	high polyreactivity
QDQLVESGGGLVQAGGSLRLSCAASGFTFNTYAMGWNRQAPGKERELVDAISKSGTRTYYADSVKGRFTISRDNAKNTVYLQMKSLKPEVTAVYYCAAEALYYYRLGWVYLRYDYWGQGTQVTVSS	high polyreactivity
QDQLVESGGGLVQAGGSLRLSCAASGFTFTIYAMGGYRQAPGKEREFVAAISYTDGSTFYVDSVKGRFTISRDYAKNTVYLQMTSLKPEDTAVYYCAKDRPGWVHRRPTGGFDYWGQGTQVTVSS	low polyreactivity
QDQLVESGGGLVQAGGSLRLSCAASGFTFYPYAMGWYRQAPGKERELVAAITYIGSTYYADSVKGRFTISRDNAKNTVYLQMNSLKPEDTAVYYCAAVKVFLGLGYDYWGQGTQVTVSS	low polyreactivity
QDQLVESGGGLVQAGGSLRLSCAASGFTYEKYAMGSYRTAPGKERELVASISWSGGRTRYADSVMGRFTISRDNAKNTVYLQMNSLKPEDTAVYYCAARGAYKSAYNRNEYWGQGTQVTVSS	high polyreactivity
QDQLVESGGGLVQAGGSLRLSCAASGGIFFIYVMGWYRQAPGKERELVAAISGSGGTTYYADSVKGRFTISRDNAKNTVYLQMNSLKPEDTAVFYCNRVSDYTLYYWGQGTQVTVSS	low polyreactivity
QDQLVESGGGLVQAGGSLRLSCAASGGTFKFYAMGWYRQAPGKERELVAAITSGGSTSYADSVKGRFTISRDNAKNTVYLQMNSLKPEDTAVYYCNADFYQRYGVFSSRRYYYWGQGTQVTVSS	high polyreactivity
QDQLVESGGGLVQAGGSLRLSCAASGGTFPEYALGWYRQAPGKERELLAAIRTDGRTYYADSVKGRFTISRDNAKNTVYLQMNSLKPEDTAVYYCAADSRYSRPYTWRKAYDYLGQGTQVTVSS	low polyreactivity
QDQLVESGGGLVQAGGSLRLSCAASGGTFTVYAMGWYRQAPGKERELVATINWSRGSTYYADSVKGRFTISRDNAKNTVYLQMKSLKPEDNAVYYCNAAWQYKSVEYWGQGTQVTVSS	low polyreactivity
QDQLVESGGGLVQAGGSLRLSCAASGIIFARYAMGWSRPAPGKERELVAAITSGGGSTYYADSVKGRFTISRDNAMNTVYLQMYSLKPEDTAVYYCAADYQTIGWGYDYWGQGTQVTVSS	low polyreactivity
QDQLVESGGGLVQAGGSLRLSCAASGIIFKFNVMGWYRQAPGKERELVAAISTGGSTYYADSVKGRFTISRDNAKNTVYLQMNSLKPEDTAVYYCNAVSPLSIWSSRDGWYGYWGQGTQVTVSS	high polyreactivity
QDQLVESGGGLVQAGGSLRLSCAASGIIFYRYAMGWYRQAPGKERELVAAITWSGVSTSYADSVKGRFTISRDNAKNTVYLQMNSLKPEDTAVYYCNKDPGTLYGDMDSWGQGTQVTVSS	low polyreactivity
QDQLVESGGGLVQAGGSLRLSCAASGIIIVAYAMGWYRQAPGKERELVAAITVSGARTYYADSVKGRFTISRDNAKITVYFQMNSLKPEDTAVYYCAARYAGGGVLGHGYWGQGTQVTVSS	high polyreactivity
